# Data taken from US20050100554A1 (published 2005).
# T1: STX4A (human, UniProt Q12846 1-297)
# T1 construct: also called syntaxin 4; cbe_4270186
# T1 sequence: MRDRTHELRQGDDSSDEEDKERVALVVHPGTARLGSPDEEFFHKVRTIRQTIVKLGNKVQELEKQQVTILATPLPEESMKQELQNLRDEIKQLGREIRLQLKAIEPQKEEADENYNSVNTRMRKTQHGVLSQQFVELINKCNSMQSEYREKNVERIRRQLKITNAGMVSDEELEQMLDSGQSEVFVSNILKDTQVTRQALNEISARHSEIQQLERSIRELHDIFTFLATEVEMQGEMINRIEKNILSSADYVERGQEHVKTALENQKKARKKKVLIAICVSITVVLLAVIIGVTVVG
# T2: PTPN2 (human, UniProt P17706 1-415)
# T2 construct: also called cbe_2576474
# T2 sequence (looked up): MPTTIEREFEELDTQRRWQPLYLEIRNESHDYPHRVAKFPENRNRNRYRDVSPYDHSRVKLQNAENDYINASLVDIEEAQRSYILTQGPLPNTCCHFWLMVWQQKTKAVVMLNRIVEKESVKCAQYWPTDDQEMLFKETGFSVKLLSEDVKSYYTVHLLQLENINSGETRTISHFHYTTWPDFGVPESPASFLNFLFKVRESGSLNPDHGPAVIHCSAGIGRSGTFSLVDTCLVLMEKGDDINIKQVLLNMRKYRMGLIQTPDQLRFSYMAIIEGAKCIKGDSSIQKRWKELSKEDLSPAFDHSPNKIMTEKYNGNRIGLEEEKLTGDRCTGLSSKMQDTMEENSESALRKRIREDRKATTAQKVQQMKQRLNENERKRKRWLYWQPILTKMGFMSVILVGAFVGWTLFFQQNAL
# T3: Human Papillomavirus 1a L1 (Human Papillomavirus 1a, UniProt P03099 1-508)
# T3 construct: also called HPV 1a L1; cbe_252016
# T3 sequence: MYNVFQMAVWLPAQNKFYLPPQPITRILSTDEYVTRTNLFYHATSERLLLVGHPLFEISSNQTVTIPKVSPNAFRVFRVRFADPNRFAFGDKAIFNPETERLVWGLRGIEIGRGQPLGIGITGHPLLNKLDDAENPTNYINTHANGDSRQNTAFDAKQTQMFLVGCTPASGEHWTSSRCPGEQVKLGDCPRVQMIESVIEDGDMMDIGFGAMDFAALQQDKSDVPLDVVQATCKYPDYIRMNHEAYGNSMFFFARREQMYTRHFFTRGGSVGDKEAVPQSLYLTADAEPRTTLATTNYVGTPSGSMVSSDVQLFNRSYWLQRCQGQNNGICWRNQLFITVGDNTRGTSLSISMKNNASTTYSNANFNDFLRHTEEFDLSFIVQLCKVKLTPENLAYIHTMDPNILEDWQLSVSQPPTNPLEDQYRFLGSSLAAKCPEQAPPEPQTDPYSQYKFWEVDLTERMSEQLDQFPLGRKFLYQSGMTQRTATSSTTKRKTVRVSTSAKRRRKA
# T4: SCO1 (human, UniProt O75880 68-301)
# T4 construct: also called cbe_1699351
# T4 sequence: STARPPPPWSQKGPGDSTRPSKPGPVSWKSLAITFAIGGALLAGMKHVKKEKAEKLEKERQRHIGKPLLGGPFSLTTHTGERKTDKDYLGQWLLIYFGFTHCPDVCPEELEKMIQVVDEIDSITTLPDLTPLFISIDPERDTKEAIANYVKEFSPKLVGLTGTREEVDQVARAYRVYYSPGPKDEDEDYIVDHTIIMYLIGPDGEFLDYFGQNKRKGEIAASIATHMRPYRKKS
# T5: steroid receptor RNA activator 1 (human, UniProt Q9HD15 1-224)
# T5 construct: also called SRA1; cbe_4344185
# T5 sequence: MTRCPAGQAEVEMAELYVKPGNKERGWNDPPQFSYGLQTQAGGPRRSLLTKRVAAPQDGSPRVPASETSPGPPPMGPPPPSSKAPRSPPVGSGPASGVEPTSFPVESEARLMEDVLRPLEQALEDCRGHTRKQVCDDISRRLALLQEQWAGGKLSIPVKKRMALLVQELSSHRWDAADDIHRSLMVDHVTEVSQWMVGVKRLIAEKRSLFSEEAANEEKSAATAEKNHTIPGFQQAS
# T6: KRT8 (human, UniProt P05787 1-483)
# T6 construct: also called cbe_4269571
# T6 sequence: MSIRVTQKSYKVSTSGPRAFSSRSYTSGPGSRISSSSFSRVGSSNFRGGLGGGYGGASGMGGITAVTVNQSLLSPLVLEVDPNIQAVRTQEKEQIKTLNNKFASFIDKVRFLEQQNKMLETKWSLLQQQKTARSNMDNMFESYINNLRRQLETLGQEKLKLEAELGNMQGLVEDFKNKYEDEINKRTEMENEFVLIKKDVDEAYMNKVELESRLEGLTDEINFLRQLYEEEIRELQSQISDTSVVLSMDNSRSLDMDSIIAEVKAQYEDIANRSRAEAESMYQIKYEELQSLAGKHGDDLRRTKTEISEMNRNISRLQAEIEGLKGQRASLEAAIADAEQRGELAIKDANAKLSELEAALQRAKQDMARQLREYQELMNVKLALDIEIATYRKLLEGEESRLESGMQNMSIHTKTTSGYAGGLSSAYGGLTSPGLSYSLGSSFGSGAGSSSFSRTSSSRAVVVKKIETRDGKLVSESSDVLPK
# B1: Human papillomavirus 11 E2 (other)
# chain: MEAIAKRLDACQDQLLELYEENSIDIHKHIMHWKCIRLESVLLHKAKQMGLSHIGLQVVPPLTVSETKGHNAIEMQMHLESLAKTQYGVEPWTLQDTSYEMWLTPPKRCFKKQGNTVEVKFDGCEDNVMEYVVWTHIYLQDNDSWVKVTSSVDAKGIYYTCGQFKTYYVNFNKEAQKYGSTNHWEVCYGSTVICSPASVSSTVREVSIAEPTTYTPAQTTAPTVSACTTEDGVSAPPRKRARGPSTNNTLCVANIRSVDSTINNIVTDNYNKHQRRNNCHSAATPIVQLQGDSNCLKCFRYRLNDKYKHLFELASSTWHWASPEAPHKNAIVTLTYSSEEQRQQFLNSVKIPPTIRHKVGFMSLHLL
# notes: also called HPV 11 E2; cbe_250781
# What was measured:
# PSMC1 = target: T7, PSMC1 (human, UniProt P62191 2-440); assay: Y2H (told in text)
# T7 construct: also called proteosome 26S subunit; proteosome subunit PMSC1
# STX4A = target: T1, STX4A; assay: Y2H (told in text)
# RPS26 = target: T8, RPS26 (human, UniProt P62854 2-115); assay: Y2H; INT ID 99
# T8 construct: also called cbe_4270015
# PTPN2 = target: T2, PTPN2; assay: Y2H; INT ID 160
# [1] = target: T3, Human Papillomavirus 1a L1; assay: Y2H; INT ID 440
# [2] = target: T3, Human Papillomavirus 1a L1; assay: Y2H; INT ID 438
# [3] = target: T3, Human Papillomavirus 1a L1; assay: Y2H; INT ID 439
# [4] = target: B1; assay: Y2H; INT ID 14
# MT2A = target: T9, MT2A (human, UniProt P02795 1-61); assay: Y2H; INT ID 5
# T9 construct: also called cbe_862174
# SCO1 = target: T4, SCO1; assay: Y2H; INT ID 6
# [5] = target: T5, steroid receptor RNA activator 1; assay: Y2H; INT ID 7
# KRT8 = target: T6, KRT8; assay: Y2H; INT ID 16
# T9 sequence (P02795 whole entry): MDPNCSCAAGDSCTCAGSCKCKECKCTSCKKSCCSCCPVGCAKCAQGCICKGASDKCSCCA
# T7 sequence (P62191 2-440 limits assumed): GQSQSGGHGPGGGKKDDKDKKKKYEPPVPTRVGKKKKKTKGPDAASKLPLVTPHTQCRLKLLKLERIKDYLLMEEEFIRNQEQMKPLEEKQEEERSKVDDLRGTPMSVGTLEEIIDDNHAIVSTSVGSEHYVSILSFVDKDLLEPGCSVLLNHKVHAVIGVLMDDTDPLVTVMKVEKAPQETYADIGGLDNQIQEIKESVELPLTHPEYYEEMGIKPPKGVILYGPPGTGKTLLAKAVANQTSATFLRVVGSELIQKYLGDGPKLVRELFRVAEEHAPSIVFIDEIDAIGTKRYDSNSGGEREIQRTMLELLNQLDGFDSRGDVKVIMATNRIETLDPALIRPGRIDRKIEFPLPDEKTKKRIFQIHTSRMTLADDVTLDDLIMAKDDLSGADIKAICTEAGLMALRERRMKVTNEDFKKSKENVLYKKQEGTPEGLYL
binder,measurement,setting,value
"Human papillomavirus 16 E6 (other, also called HPV 16 E6; HPV16 E6) MHQKRTAMFQDPQERPRKLPQLCTELQTTIHDIILECVYCKQQLLRREVYDFAFRDLCIVYRDGNPYAVCDKCLKFYSKISEYRHYCYSLYGTTLEQQYNKPLCDLLIRCINCQKPLCPEEKQRHLDKKQRFHNIRGRWTGRCMSCCRSSRTRRETQL",binding result,PSMC1,binds
same,binding result,STX4A,binds
same,binding result,RPS26,binds
same,binding result,PTPN2,binds
"SCGB1A1 (other, also called cbe_4296923) EICPSFQRVIETLLMDTPSSYEAAMELFSPDQDMREAGAQLKKLVDTLPQKPRESIIKLMEKIAQSSLCN",binding result,[1],binds
"isovaleryl Coenzyme A dehydrogenase (enzyme, also called IVD; cbe_3800240) HSLLPVDDAINGLSEEQRQLRQTMAKFLQEHLAPKAQEIDRSNEFKNLREFWKQLGNLGVLGITAPVQYGGSGLGYLEHVLVMEEISRASGAVGLSYGAHSNLCINQLVRNGNEAQKEKYLPKLISGEYIGALAMSEPNAGSDVVSMKLKAEKKGNHYILNGNKFWITNGPDADVLIVYAKTDLAAVPASRGITAFIVEKGMPGFSTSKKLDKLGMRGSNTCELIFEDCKIPAANILGHENKGVYVLMSGLDLERLVLAGGPLGLMQAVLDHTIPYLHVREAFGQKIGHFQLMQGKMADMYTRLMACRQYVYNVAKACDEGHCTAKDCAGVILYSAECATQVALDGIQCFGGNGYINDFPMGRFLRDAKLYEIGAGTSEVRRLVIGRAFNADFH",binding result,[2],binds
"NR1H2 (receptor, also called cbe_4268726) MSSPTTSSLDTPLPGNGPPQPGAPSSSPTVKEEGPEPWPGGPDPDVPGTDEASSACSTDWVIPDPEEEPERKRKKGPAPKMLGHELCRVCGDKASGFHYNVLSCEGCKGFFRRSVVRGGARRYACRGGGTCQMDAFMRRKCQQCRLRKCKEAGMREQCVLSEEQIRKKKIRKQQQESQSQSQSPVGPQGSSSSASGPGASPGGSEAGSQGSGEGEGVQLTAAQELMIQQLVAAQLQCNKRSFSDQPKVTPWPLGADPQSRDARQQRFAHFTELAIISVQEIVDFAKQVPGFLQLGREDQIALLKASTIEIMLLETARRYNHETECITFLKDFTYSKDDFHRAGLQVEFINPIFEFSRAMRRLGLDDAEYALLIAINIFSADRPNVQEPGRVEALQQPYVEALLSYTRIKRPQDQLRFPRMLMKLVSLRTLSSVHSEQVFALRLQDKKLPPLLSEIWDVHE",binding result,[3],binds
"hypothetical gene supported by AL449243 (other, also called Hs.306083; LOC91689) MASGAARWLVLAPVRSGALRSGPSLRKDGDVSAAWSGSGRSLVPSGSVIVTRSGAILPKPVKMSFGLLRVFSIVIPFLYVGTLISKNFAALLEEHDIFVPEDDDDDD",binding result,[4],binds
"Human papillomavirus 11 E4 (other, also called HPV 11 E4; cbe_250777) MVVPIIGKYVMAAQLYVLLHLYLALYEKYPLLNLLHTPPHRPPPLQCPPAPRKTACRRRLGSEHVDRPLTTPCVWPTSDPWTVQSTTSSLTITTSTKEGTTVTVQLRL",binding result,MT2A,binds
same,binding result,SCO1,binds
same,binding result,[5],binds
B1,binding result,KRT8,binds
